Experimental data: publication PMC7367873, “Dissecting the sequence determinants for dephosphorylation by the catalytic subunits of phosphatases PP1 and PP2A” (Nature Communications, 2020)

Key:
[1] = tested on: GFP-14-3-3β and its binding proteins; assay: GFP-14-3-3β co-IP with LC-MS/MS label-free quantification, untreated versus PP1c-treated; design: species or system human; conditions: log2 difference; pairwise comparison PP1 vs untreated, label-free quantification, 3 replicates each
GFP-14-3-3β = GFP-14-3-3β co-IP with LC-MS/MS, untreated GFP-14-3-3β versus GFP control (14-3-3 interactome); assay type: binding, human; conditions: log2 difference; pairwise comparison untreated vs GFP, label-free quantification, 3 replicates each

| Molecule | Difference (log2), PP1 vs untreated [1] | Difference (log2), untreated vs GFP (GFP-14-3-3β) |
| --- | --- | --- |
| CAPRIN1 (protein, UniProt Q14444 2-709, looked up) Caprin-1: PSATSHSGSGSKSSGPPPPSGSSGSEAAAGAGAAAPASQHPATGTGAVQTEAMKQILGVIDKKLRNLEKKKGKLDDYQERMNKGERLNQDQLDAVSKYQEVTNNLEFAKELQRSFMALSQDIQKTIKKTARREQLMREEAEQKRLKTVLELQYVLDKLGDDEVRTDLKQGLNGVPILSEEELSLLDEFYKLVDPERDMSLRLNEQYEHASIHLWDLLEGKEKPVCGTTYKVLKEIVERVFQSNYFDSTHNHQNGLCEEEEAASAPAVEDQVPEAEPEPAEEYTEQSEVESTEYVNRQFMAETQFTSGEKEQVDEWTVETVEVVNSLQQQPQAASPSVPEPHSLTPVAQADPLVRRQRVQDLMAQMQGPYNFIQDSMLDFENQTLDPAIVSAQPMNPTQNMDMPQLVCPPVHSESRLAQPNQVPVQPEATQVPLVSSTSEGYTASQPLYQPSHATEQRPQKEPIDQIQATISLNTDQTTASSSLPAASQPQVFQAGTSKPLHSSGINVNAAPFQSMQTVFNMNAPVPPVNEPETLKQQNQYQASYNQSFSSQPHQVEQTELQQEQLQTVVGTYHGSPDQSHQVTGNHQQPPQQNTGFPRSNQPYYNSRGVSRGGSRGARGLMNGYRGPANGFRGGYDGYRPSFSNTPNSGYTQSQFSAPRDYSGYQRDGYQQNFKRGSGQSGPRGAPRGRGGPPRPNRGMPQMNTQQVN | 1.323 | -0.3406 |
| SLC43A3 (protein, UniProt Q8NBI5 1-491, looked up) Equilibrative nucleobase …: MAGQGLPLHVATLLTGLLECLGFAGVLFGWPSLVFVFKNEDYFKDLCGPDAGPIGNATGQADCKAQDERFSLIFTLGSFMNNFMTFPTGYIFDRFKTTVARLIAIFFYTTATLIIAFTSAGSAVLLFLAMPMLTIGGILFLITNLQIGNLFGQHRSTIITLYNGAFDSSSAVFLIIKLLYEKGISLRASFIFISVCSTWHVARTFLLMPRGHIPYPLPPNYSYGLCPGNGTTKEEKETAEHENRELQSKEFLSAKEETPGAGQKQELRSFWSYAFSRRFAWHLVWLSVIQLWHYLFIGTLNSLLTNMAGGDMARVSTYTNAFAFTQFGVLCAPWNGLLMDRLKQKYQKEARKTGSSTLAVALCSTVPSLALTSLLCLGFALCASVPILPLQYLTFILQVISRSFLYGSNAAFLTLAFPSEHFGKLFGLVMALSAVVSLLQFPIFTLIKGSLQNDPFYVNVMFMLAILLTFFHPFLVYRECRTWKESPSAIA | 1.303 | -0.216 |
| DHX30 (protein, UniProt Q7L2E3 1-1194, looked up) ATP-dependent RNA helicase …: MFSLDSFRKDRAQHRQRQCKLPPPRLPPMCVNPTPGGTISRASRDLLKEFPQPKNLLNSVIGRALGISHAKDKLVYVHTNGPKKKKVTLHIKWPKSVEVEGYGSKKIDAERQAAAAACQLFKGWGLLGPRNELFDAAKYRVLADRFGSPADSWWRPEPTMPPTSWRQLNPESIRPGGPGGLSRSLGREEEEDEEEELEEGTIDVTDFLSMTQQDSHAPLRDSRGSSFEMTDDDSAIRALTQFPLPKNLLAKVIQIATSSSTAKNLMQFHTVGTKTKLSTLTLLWPCPMTFVAKGRRKAEAENKAAALACKKLKSLGLVDRNNEPLTHAMYNLASLRELGETQRRPCTIQVPEPILRKIETFLNHYPVESSWIAPELRLQSDDILPLGKDSGPLSDPITGKPYVPLLEAEEVRLSQSLLELWRRRGPVWQEAPQLPVDPHRDTILNAIEQHPVVVISGDTGCGKTTRIPQLLLERYVTEGRGARCNVIITQPRRISAVSVAQRVSHELGPSLRRNVGFQVRLESKPPSRGGALLFCTVGILLRKLQSNPSLEGVSHVIVDEVHERDVNTDFLLILLKGLQRLNPALRLVLMSATGDNERFSRYFGGCPVIKVPGFMYPVKEHYLEDILAKLGKHQYLHRHRHHESEDECALDLDLVTDLVLHIDARGEPGGILCFLPGWQEIKGVQQRLQEALGMHESKYLILPVHSNIPMMDQKAIFQQPPVGVRKIVLATNIAETSITINDIVHVVDSGLHKEERYDLKTKVSCLETVWVSRANVIQRRGRAGRCQSGFAYHLFPRSRLEKMVPFQVPEILRTPLENLVLQAKIHMPEKTAVEFLSKAVDSPNIKAVDEAVILLQEIGVLDQREYLTTLGQRLAHISTDPRLAKAIVLAAIFRCLHPLLVVVSCLTRDPFSSSLQNRAEVDKVKALLSHDSGSDHLAFVRAVAGWEEVLRWQDRSSRENYLEENLLYAPSLRFIHGLIKQFSENIYEAFLVGKPSDCTLASAQCNEYSEEEELVKGVLMAGLYPNLIQVRQGKVTRQGKFKPNSVTYRTKSGNILLHKSTINREATRLRSRWLTYFMAVKSNGSVFVRDSSQVHPLAVLLLTDGDVHIRDDGRRATISLSDSDLLRLEGDSRTVRLLKELRRALGRMVERSLRSELAALPPSVQEEHGQLLALLAELLRGPCGSFDVRKTADD | 1.371 | 0.9044 |
| MAP7 (protein, UniProt Q14244 2-749, looked up) Ensconsin: AELGAGGDGHRGGDGAVRSETAPDSYKVQDKKNASSRPASAISGQNNNHSGNKPDPPPVLRVDDRQRLARERREEREKQLAAREIVWLEREERARQHYEKHLEERKKRLEEQRQKEERRRAAVEEKRRQRLEEDKERHEAVVRRTMERSQKPKQKHNRWSWGGSLHGSPSIHSADPDRRSVSTMNLSKYVDPVISKRLSSSSATLLNSPDRARRLQLSPWESSVVNRLLTPTHSFLARSKSTAALSGEAASCSPIIMPYKAAHSRNSMDRPKLFVTPPEGSSRRRIIHGTASYKKERERENVLFLTSGTRRAVSPSNPKARQPARSRLWLPSKSLPHLPGTPRPTSSLPPGSVKAAPAQVRPPSPGNIRPVKREVKVEPEKKDPEKEPQKVANEPSLKGRAPLVKVEEATVEERTPAEPEVGPAAPAMAPAPASAPAPASAPAPAPVPTPAMVSAPSSTVNASASVKTSAGTTDPEEATRLLAEKRRLAREQREKEERERREQEELERQKREELAQRVAEERTTRREEESRRLEAEQAREKEEQLQRQAEERALREREEAERAQRQKEEEARVREEAERVRQEREKHFQREEQERLERKKRLEEIMKRTRRTEATDKKTSDQRNGDIAKGALTGGTEVSALPCTTNAPGNGKPVGSPHVVTSHQSKVTVESTPDLEKQPNENGVSVQNENFEEIINLPIGSKPSRLDVTNSESPEIPLNPILAFDDEGTLGPLPQVDGVQTQQTAEVI | 1.312 | -0.1668 |
| P4HA1 (protein, UniProt P13674 18-534, looked up) Prolyl 4-hydroxylase subunit …: HPGFFTSIGQMTDLIHTEKDLVTSLKDYIKAEEDKLEQIKKWAEKLDRLTSTATKDPEGFVGHPVNAFKLMKRLNTEWSELENLVLKDMSDGFISNLTIQRQYFPNDEDQVGAAKALLRLQDTYNLDTDTISKGNLPGVKHKSFLTAEDCFELGKVAYTEADYYHTELWMEQALRQLDEGEISTIDKVSVLDYLSYAVYQQGDLDKALLLTKKLLELDPEHQRANGNLKYFEYIMAKEKDVNKSASDDQSDQKTTPKKKGVAVDYLPERQKYEMLCRGEGIKMTPRRQKKLFCRYHDGNRNPKFILAPAKQEDEWDKPRIIRFHDIISDAEIEIVKDLAKPRLRRATISNPITGDLETVHYRISKSAWLSGYENPVVSRINMRIQDLTGLDVSTAEELQVANYGVGGQYEPHFDFARKDEPDAFKELGTGNRIATWLFYMSDVSAGGATVFPEVGASVWPKKGTAVFWYNLFASGEGDYSTRHAACPVLVGNKWVSNKWLHERGQEFRRPCTLSELE | 1.3164 | -0.8349 |
| RFC1 (protein, UniProt P35251 1-1148, looked up) Replication factor C subunit 1: MDIRKFFGVIPSGKKLVSETVKKNEKTKSDEETLKAKKGIKEIKVNSSRKEDDFKQKQPSKKKRIIYDSDSESEETLQVKNAKKPPEKLPVSSKPGKISRQDPVTYISETDEEDDFMCKKAASKSKENGRSTNSHLGTSNMKKNEENTKTKNKPLSPIKLTPTSVLDYFGTGSVQRSNKKMVASKRKELSQNTDESGLNDEAIAKQLQLDEDAELERQLHEDEEFARTLAMLDEEPKTKKARKDTEAGETFSSVQANLSKAEKHKYPHKVKTAQVSDERKSYSPRKQSKYESSKESQQHSKSSADKIGEVSSPKASSKLAIMKRKEESSYKEIEPVASKRKENAIKLKGETKTPKKTKSSPAKKESVSPEDSEKKRTNYQAYRSYLNREGPKALGSKEIPKGAENCLEGLIFVITGVLESIERDEAKSLIERYGGKVTGNVSKKTNYLVMGRDSGQSKSDKAAALGTKIIDEDGLLNLIRTMPGKKSKYEIAVETEMKKESKLERTPQKNVQGKRKISPSKKESESKKSRPTSKRDSLAKTIKKETDVFWKSLDFKEQVAEETSGDSKARNLADDSSENKVENLLWVDKYKPTSLKTIIGQQGDQSCANKLLRWLRNWQKSSSEDKKHAAKFGKFSGKDDGSSFKAALLSGPPGVGKTTTASLVCQELGYSYVELNASDTRSKSSLKAIVAESLNNTSIKGFYSNGAASSVSTKHALIMDEVDGMAGNEDRGGIQELIGLIKHTKIPIICMCNDRNHPKIRSLVHYCFDLRFQRPRVEQIKGAMMSIAFKEGLKIPPPAMNEIILGANQDIRQVLHNLSMWCARSKALTYDQAKADSHRAKKDIKMGPFDVARKVFAAGEETAHMSLVDKSDLFFHDYSIAPLFVQENYIHVKPVAAGGDMKKHLMLLSRAADSICDGDLVDSQIRSKQNWSLLPAQAIYASVLPGELMRGYMTQFPTFPSWLGKHSSTGKHDRIVQDLALHMSLRTYSSKRTVNMDYLSLLRDALVQPLTSQGVDGVQDVVALMDTYYLMKEDFENIMEISSWGGKPSPFSKLDPKVKAAFTRAYNKEAHLTPYSLQAIKASRHSTSPSLDSEYNEELNEDDSQSDEKDQDAIETDAMIKKKTKSSKPSKPEKDKEPRKGKGKSSKK | 1.349 | 0.4473 |
| STT3B (protein, UniProt Q8TCJ2 2-826, looked up) Dolichyl-diphosphooligosacchar …: AEPSAPESKHKSSLNSSPWSGLMALGNSRHGHHGPGAQCAHKAAGGAAPPKPAPAGLSGGLSQPAGWQSLLSFTILFLAWLAGFSSRLFAVIRFESIIHEFDPWFNYRSTHHLASHGFYEFLNWFDERAWYPLGRIVGGTVYPGLMITAGLIHWILNTLNITVHIRDVCVFLAPTFSGLTSISTFLLTRELWNQGAGLLAACFIAIVPGYISRSVAGSFDNEGIAIFALQFTYYLWVKSVKTGSVFWTMCCCLSYFYMVSAWGGYVFIINLIPLHVFVLLLMQRYSKRVYIAYSTFYIVGLILSMQIPFVGFQPIRTSEHMAAAGVFALLQAYAFLQYLRDRLTKQEFQTLFFLGVSLAAGAVFLSVIYLTYTGYIAPWSGRFYSLWDTGYAKIHIPIIASVSEHQPTTWVSFFFDLHILVCTFPAGLWFCIKNINDERVFVALYAISAVYFAGVMVRLMLTLTPVVCMLSAIAFSNVFEHYLGDDMKRENPPVEDSSDEDDKRNQGNLYDKAGKVRKHATEQEKTEEGLGPNIKSIVTMLMLMLLMMFAVHCTWVTSNAYSSPSVVLASYNHDGTRNILDDFREAYFWLRQNTDEHARVMSWWDYGYQIAGMANRTTLVDNNTWNNSHIALVGKAMSSNETAAYKIMRTLDVDYVLVIFGGVIGYSGDDINKFLWMVRIAEGEHPKDIRESDYFTPQGEFRVDKAGSPTLLNCLMYKMSYYRFGEMQLDFRTPPGFDRTRNAEIGNKDIKFKHLEEAFTSEHWLVRIYKVKAPDNRETLDHKPRVTNIFPKQKYLSKKTTKRKRGYIKNKLVFKKGKKISKKTV | 1.284 | -0.7683 |
